How the values were obtained:
[1] = target: VvPrx3 (C73S) (Vibrio vulnificus); test: SDS-PAGE under nonreducing conditions (intermolecular disulfide bond), time course; VvPrx3 (C73S) 70 µM reacted with 50 µM H2O2 for 0-60 s; quenched with 10 mM N-ethylmaleimide; band density by ImageJ
[2] = target: VvPrx3 (C73S) (Vibrio vulnificus); test: SDS-PAGE under nonreducing or reducing conditions (intermolecular disulfide bond); reduced VvPrx3 (C73S) reacted with various concentrations of H2O2 or t-BOOH for 30 min at 298 K in 20 mM Tris-HCl pH 8.0, 150 mM NaCl; stopped with iodoacetamide; boiled with or without 10 mM DTT

VvPrx3 (C73S) (enzyme)
protein linked by a disulfide bond at 30 s (70 µM protein, 50 µM H2O2) [1]: 30 µM | stoichiometry N [2]: 2
